Where a chain is given by its changes, count along the chain named. Names and notes keep the numbering of the source.

One experiment deals with T1, His6-tagged SEC5B (Arabidopsis thaliana, UniProt F4HWE6 1-1090).
T1 sequence: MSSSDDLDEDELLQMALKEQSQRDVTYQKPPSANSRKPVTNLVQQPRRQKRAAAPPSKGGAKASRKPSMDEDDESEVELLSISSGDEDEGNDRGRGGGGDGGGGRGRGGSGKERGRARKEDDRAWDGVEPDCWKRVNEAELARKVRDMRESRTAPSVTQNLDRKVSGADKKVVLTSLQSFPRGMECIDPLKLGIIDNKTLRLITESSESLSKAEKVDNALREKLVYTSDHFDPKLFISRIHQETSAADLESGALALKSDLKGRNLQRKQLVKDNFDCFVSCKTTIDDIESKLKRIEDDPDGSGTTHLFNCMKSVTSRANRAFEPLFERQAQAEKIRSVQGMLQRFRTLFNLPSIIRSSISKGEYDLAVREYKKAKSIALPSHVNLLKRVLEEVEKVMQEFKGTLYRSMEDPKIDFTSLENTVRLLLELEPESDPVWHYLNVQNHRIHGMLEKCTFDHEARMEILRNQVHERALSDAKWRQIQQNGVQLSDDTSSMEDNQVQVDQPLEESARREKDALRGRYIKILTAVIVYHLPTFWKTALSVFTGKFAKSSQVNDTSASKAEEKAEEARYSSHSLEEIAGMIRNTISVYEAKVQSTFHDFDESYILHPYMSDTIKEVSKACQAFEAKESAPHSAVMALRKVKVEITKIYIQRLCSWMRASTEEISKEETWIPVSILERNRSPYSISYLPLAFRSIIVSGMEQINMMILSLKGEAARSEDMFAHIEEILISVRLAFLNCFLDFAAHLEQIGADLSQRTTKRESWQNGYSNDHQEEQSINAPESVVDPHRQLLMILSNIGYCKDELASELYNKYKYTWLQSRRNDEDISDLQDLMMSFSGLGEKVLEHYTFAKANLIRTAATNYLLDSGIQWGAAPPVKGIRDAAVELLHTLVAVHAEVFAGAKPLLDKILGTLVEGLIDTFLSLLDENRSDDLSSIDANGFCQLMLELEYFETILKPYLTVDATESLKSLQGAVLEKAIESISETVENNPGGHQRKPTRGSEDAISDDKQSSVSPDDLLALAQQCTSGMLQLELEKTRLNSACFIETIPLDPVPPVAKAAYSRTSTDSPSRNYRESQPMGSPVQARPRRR
The experiment can be described thus: pull-down.

In another experiment the target is T2, His6-tagged SEC15B (Arabidopsis thaliana, UniProt F4JHH5 1-787).
T2 sequence: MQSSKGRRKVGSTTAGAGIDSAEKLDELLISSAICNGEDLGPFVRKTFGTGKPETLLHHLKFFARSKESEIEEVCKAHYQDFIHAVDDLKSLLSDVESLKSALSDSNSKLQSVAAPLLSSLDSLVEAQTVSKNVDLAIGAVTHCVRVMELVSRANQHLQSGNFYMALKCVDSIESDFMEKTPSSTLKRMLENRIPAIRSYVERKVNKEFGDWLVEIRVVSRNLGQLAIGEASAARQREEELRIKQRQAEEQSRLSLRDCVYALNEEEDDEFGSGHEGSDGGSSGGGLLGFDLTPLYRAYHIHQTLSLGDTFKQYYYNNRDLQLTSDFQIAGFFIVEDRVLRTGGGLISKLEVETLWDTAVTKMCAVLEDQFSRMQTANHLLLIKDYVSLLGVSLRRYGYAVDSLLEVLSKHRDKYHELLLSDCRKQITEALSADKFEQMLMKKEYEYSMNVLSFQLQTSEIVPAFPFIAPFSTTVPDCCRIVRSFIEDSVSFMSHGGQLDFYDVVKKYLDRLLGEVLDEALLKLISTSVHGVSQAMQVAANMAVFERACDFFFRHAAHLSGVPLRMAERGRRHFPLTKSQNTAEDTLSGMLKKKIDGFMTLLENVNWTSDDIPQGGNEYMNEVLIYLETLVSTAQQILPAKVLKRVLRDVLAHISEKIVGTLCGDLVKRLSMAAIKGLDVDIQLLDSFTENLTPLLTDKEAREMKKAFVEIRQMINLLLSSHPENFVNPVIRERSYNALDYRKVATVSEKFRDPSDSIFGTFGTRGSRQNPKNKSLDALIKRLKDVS
Kind of experiment: pull-down.

B1: GST-tagged myosin XIK GTD (wild type) (domain or fragment)
chain: ISPTSRTMATRSKTMLLPRTPENGNYLNGGTKTTPDMTLAVREPESEEKPQKHLNEKQQENQDLLVKCISQNLGYNGDKPVAACVIYKCLLHWRSFEVERTSVFDRIIQTIATAIEVPDNNEVLAYWLSNSATLLLLLQRTLKATGAASLTPQRRRTTSASLFGRMSQGLRGSPQSAGLSFLNRQGLTKLDDLRQVEAKYPALLFKQQLTAFLEKIYGMIRDNLKKEISPLLGLCIQAPRTSRASLVKGRAQANAVAQQALIAHWQSIRKSLNSYLNLMKANNAPPFLVRKVFTQIFSFINVQLFNSLLLRRECCSFSNGEYVKAGLAELEQWCIEATDEYAGSAWDELRHIRQAVGFLVIHQKPKKTLDEITRELCPVLSIQQLYRISTMYWDDKYGTHSVSSDVIANMRVMMTEDSNNAVSSSFLLDDDSSIPFTVEDISKSMQQVDVNDIEPPQLIRENSGFGFLLTRKEGSTS
As to B1, the binding result with His6-tagged SEC5B and with His6-tagged SEC15B was “binds” in each case.

B2: GST-XIK GTD K1103A (domain or fragment)
chain: B1 chain with K49A
On to B2, for which the binding result in the experiment with His6-tagged SEC5B is “binds”.

Values taken from article PMC8364239 (The Plant Cell, 2021).
